Data as given in patent US11814447B2, “Peptide ligands for binding to EphA2” (BICYCLERD LIMITED, priority 2018, dated 2023).
Starred links: 1 amine or outer side, 2 acyl side, 3 side chain; linkers in the order of their positions; H or OH if unused. Positions of bridges follow the written chain, without caps; N, C: chain ends. Non-standard residues stand in square brackets, D forms with d. No end group written: not given here. TATA = O=C(CC[*:1])N1CN(C(=O)CC[*:2])CN(C(=O)CC[*:3])C1; 1Nal = N[C@@H](Cc1cccc2ccccc12)C(=O)O; TBMB = c1c(C[*:1])cc(C[*:3])cc1C[*:2]; hArg = N=C(N)NCCCC[C@H](N)C(=O)O; Tle = CC(C)(C)[C@H](N)C(=O)O; Aib = CC(C)(N)C(=O)O; Sar = CNCC(=O)O

Legend:
[1] = target: Human EphA2 (Ecto) (Human) (UniProt P29317); test: FP competition, tracer Compound 18
[2] = target: Mouse EphA2 (Ecto) (Mouse) (UniProt Q03145); test: FP competition, tracer Compound 18
[3] = target: T1, Mouse EphA2 (Ecto) (Mouse, UniProt Q03145 26-538); test: FP competition; tracer Reference Compound C
T1 construct: extracellular domain; C-terminal polyHis; not shown: Fc fusion or C-terminal polyHis
Description: (§1) Peptides without a fluorescent tag were tested in competition with a peptide with a fluorescent tag and a known Kd (Table 2). Peptides were diluted to an appropriate concentration in assay buffer as described in the direct binding assay with a maximum of 5% DMSO, then serially diluted 1 in 2. […] Measurements were conducted as for the direct binding assay, however the gain was determined prior to the first measurement. Data analysis was in Systat Sigmaplot version 12.0 where the mP values were fit to a user defined cubic equation to generate a Ki value: […]

[4] = target: T2, Human EphA2 (Ecto) (Human, UniProt P29317 24-537); test: FP competition; tracer Reference Compound C
T2 construct: extracellular domain; in-house)
Description: as §1
T2 sequence (P29317 24-537): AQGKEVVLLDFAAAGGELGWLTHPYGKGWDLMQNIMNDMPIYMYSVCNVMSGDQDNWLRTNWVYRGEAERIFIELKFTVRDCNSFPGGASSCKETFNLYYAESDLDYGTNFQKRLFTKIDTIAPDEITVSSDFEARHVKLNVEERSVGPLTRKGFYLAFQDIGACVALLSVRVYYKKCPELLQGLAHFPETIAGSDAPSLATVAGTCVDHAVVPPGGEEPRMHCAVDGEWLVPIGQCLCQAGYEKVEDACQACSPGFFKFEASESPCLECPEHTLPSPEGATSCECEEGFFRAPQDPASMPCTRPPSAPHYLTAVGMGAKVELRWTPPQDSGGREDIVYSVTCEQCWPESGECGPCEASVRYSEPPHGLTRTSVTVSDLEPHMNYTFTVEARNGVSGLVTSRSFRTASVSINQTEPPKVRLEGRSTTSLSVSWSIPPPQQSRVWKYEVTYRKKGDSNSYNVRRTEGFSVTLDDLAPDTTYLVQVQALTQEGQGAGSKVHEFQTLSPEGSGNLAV

[5] = target: T2, Human EphA2 (Ecto); test: FP competition; tracer Reference Compound A
Description: as §1

[6] = target: T2, Human EphA2 (Ecto); test: FP competition; tracer Reference Compound B
Description: as §1

[7] = target: T3, Human EphA2 (Ecto) (Human, UniProt P29317 24-537); test: FP competition, tracer Compound 66
T3 construct: extracellular domain
T3 sequence (P29317 24-537): as above

[8] = target: T3, Human EphA2 (Ecto); test: FP competition, tracer Compound 18
Description: as §1

T1 sequence (Q03145 26-538): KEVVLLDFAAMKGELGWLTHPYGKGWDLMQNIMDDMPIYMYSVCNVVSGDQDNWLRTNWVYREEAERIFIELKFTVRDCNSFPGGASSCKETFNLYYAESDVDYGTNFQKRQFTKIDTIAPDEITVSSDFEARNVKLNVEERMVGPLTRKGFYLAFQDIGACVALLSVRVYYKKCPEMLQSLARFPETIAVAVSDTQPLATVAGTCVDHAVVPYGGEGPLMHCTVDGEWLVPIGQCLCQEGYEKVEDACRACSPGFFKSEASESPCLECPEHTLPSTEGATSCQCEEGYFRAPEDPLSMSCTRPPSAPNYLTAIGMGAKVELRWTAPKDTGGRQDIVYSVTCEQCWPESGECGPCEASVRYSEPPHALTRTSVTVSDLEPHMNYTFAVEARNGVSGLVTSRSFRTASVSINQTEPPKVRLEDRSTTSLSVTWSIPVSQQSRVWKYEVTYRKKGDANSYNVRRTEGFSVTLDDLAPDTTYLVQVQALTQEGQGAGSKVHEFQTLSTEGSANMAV
Mouse EphA2 (Ecto) (Mouse), sequence (Q03145 26-538): as above
Human EphA2 (Ecto) (Human), sequence (P29317 24-537): as the sequence (P29317 24-537) above

Binder | Ki [3] [nM] | Ki [4] [nM] | also measured
Ac-[Sar][Sar]H[dD]VPCP[1Nal]G[Aib]F[1Nal]CP[Tle]N[hArg]P[dD]C (linker 7-14-21 via TBMB) [Bicycle Compound 254] |  |  | Ki [1]: 0.74 nM; Ki [2]: 0.64 nM
ACQPSNHCAFMNYCA (linker 2-8-14 via TATA) [Bicycle Compound Number 30 (TATA scaffold), ACQPSNHCAFMNYCA] |  |  | Ki [5]: 137 nM; Ki [6]: 187 nM
Ac-[Sar][Sar]H[dD]VPCP[1Nal]G[Aib]F[1Nal]CP[Tle]NR[Aib]GC (linker 7-14-21 via TBMB) [Bicycle Compound 262] |  |  | Ki [1]: 0.71 nM; Ki [2]: 0.72 nM
[Sar][Sar]ACPWGPFWCPVNR[dA]GC (linker 4-11-18 via TBMB) [Bicycle Compound 105] |  |  | Ki [7]: 471 nM; Ki [8]: 677 nM
ARDCPLVNPLCLHPGWTCAXXXXXXK (N-terminal acetyl; X at 20-25 = Sar (sarcosine); K26 = D-Lys; 3 Cys thioether-linked to TATA scaffold) [Bicycle Compound Number 68 (TATA scaffold), Ac-ARDCPLVNPLCLHPGWTCA-Sar6-(D-K)] | 166 | 19.3 | 
ACPLVNPLCLHPGWTCLHG (linker 2-9-16 via TATA) [Bicycle Compound Number 73 (TATA scaffold), ACPLVNPLCLHPGWTCLHG] | 7.27 |  | 
[Sar][Sar]ACPWGPFWCPVN[dA]PGC (linker 4-11-18 via TBMB) [Bicycle Compound 302] |  |  | Ki [7]: 1410 nM; Ki [8]: > 1000 nM
XXXXXXXXXXXARDCPLVNPLCLHPGWTC (N-terminal (β-Ala)-Sar10; 3 Cys thioether-linked to TATA scaffold) [Bicycle Compound Number 66 (BCY6099) (TATA scaffold), (β-Ala)-Sar10-ARDCPLVNPLCLHPGWTC] | 57.6 | 4.94 | 
ACTSCWAYPDSFCA (linker 2-5-13 via TATA) [Bicycle Compound Number 32 (TATA scaffold), ACTSCWAYPDSFCA] |  | 232 | Ki [5]: 151 nM
[Sar][Sar]ACPWGPFWCPVNRP[dA]C (linker 4-11-18 via TBMB) [Bicycle Compound 112] |  |  | Ki [7]: 110 nM; Ki [8]: 89 nM
CPLVNPLCLHPGWTCLHGXXXXXXK (N-terminal acetyl; X at 19-24 = Sar; K25 = D-Lys; 3 Cys thioether-linked to TATA scaffold) [Bicycle Compound Number 77 (BCY6019) (TATA scaffold), Ac-CPLVNPLCLHPGWTCLHG-Sar6-(D-K)] | 48.2 | 5.41 | 

Second part, led by results:

Ki [3] [nM] | Ki [4] [nM] | Binder | also measured
39.1 | 6.05 | ARDCPLVNPLCLHPGWTCA (linker 4-11-18 via TATA) [Bicycle Compound Number 65 (TATA scaffold), ARDCPLVNPLCLHPGWTCA] | 
 | 223 | ACSPTPACAVQNLCA (linker 2-8-14 via TATA) [Bicycle Compound Number 31 (TATA scaffold), ACSPTPACAVQNLCA] | Ki [6]: 177 nM
18.6 | 2.57 | ACPLVNPLCLHPGWSCRGQ (linker 2-9-16 via TATA) [Bicycle Compound Number 87 (BCY6026) (TATA scaffold), ACPLVNPLCLHPGWSCRGQ] | 
115 | 15.6 | CPLVNPLCLHPGWTCLHGXXXXXXK (N-terminal acetyl; H17 = D-His; X at 19-24 = Sar; K25 = D-Lys; 3 Cys thioether-linked to TATA scaffold) [Bicycle Compound Number 78 (TATA scaffold), Ac-CPLVNPLCLHPGWTCL(D-His)G-Sar6-(D-K)] | 
